This note sets out measurements from the supplement of paper PMC11780869.

The subject of this data set is Bacillus subtilis. Put plainly: cleaved RNA product abundance (RNA/gDNA barcode ratio) relative to median wild-type variant (ratio to wild type); higher = more accumulation of the downstream cleavage product. The following applies: cleavage site: cggR-gapA (positions -7 to +36 mutated). The procedure, abridged:
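Sequencing of barcodes from gel-selected, reverse-transcribed cleaved RNA and from genomic DNA, with UMI collapsing, yielded a per-construct RNA:gDNA ratio. Scaled to the median construct with the unmutated site, this ratio is the cleaved product abundance. The barcoded reporters (truncated aprE or tetM mRNAs with mutagenized RNase Y cleavage-site windows) were integrated into the B. subtilis chromosome, and cultures grew in LB at 37°C from OD600 0.0003 to 0.3.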

Where [1] appears, read: experiment (reporter, strain, medium): exp 2b: truncated aprE reporter, strain BJT200.
Where [2] appears, read: experiment (reporter, strain, medium): exp 4a: truncated aprE reporter, strain BJT201 with 2% xylose (RNase J1 expressed).
Where [3] appears, read: experiment (reporter, strain, medium): exp 6: tetM reporter, strain 168.

“ACAGACGAAGGAGCCGCAAAGAAGTTATTAAGGGATGAATAATCCCTCAATATTAATATCTCTCACTTATTTAAA”: the “cleaved RNA product abundance” value stood at 0.169 under setting [1], 0.113 under setting [2] and 0.249 under setting [3].

For “ACAGACGAAGGAGCCGCAAAGAAGTTATTAAGGGATGAATAATCCCTCAATCTAAATATCTCTCACTTATTTAAA”, the “cleaved RNA product abundance” value by setting is: under setting [1], 0.126; under setting [2], 0.138; under setting [3], 0.193. For “ACAGACGAAGGAGCCGCAAAGAAGTTATTAAGGGATGAATAATCCCTCAATGTAAATATCTCTCACTTATTTAAA” the same measures were 0.139, 0.13 and 0.154. For “ACAGACGAAGGAGCCGCAAAGAAGTTATTAAGGGATGAATAATCCCTCAATTTAAATATCTCTCACTTATTTAAA” the same measures were 0.182, 0.218 and 0.195. Regarding “ACAGACGAAGGAGCCGCAAAGAAGTTATTAAGGGATGAATAATCCCTCAATTTAAATGTCTCTCACTTATTTAAA”, under setting [2], the “cleaved RNA product abundance” value turned out to be 0.048. Still for that read-out and setting: with “ACAGACGAAGGAGCCGCAAAGAAGTTATTAAGGGATGAATAATCCCTCAATTTATATATCTCTCACTTATTTAAA” the figure was 0.2.

For “ACAGACGAAGGAGCCGCAAAGAAGTTATTAAGGGATGAATAATCCCTCACTATAAATAACTCTCACTTATTTAAA”, the “cleaved RNA product abundance” value under setting [1] was determined as 0.175 and the “cleaved RNA product abundance” value under setting [2] stood at 0.285.

In the case of “ACAGACGAAGGAGCCGCAAAGAAGTTATTAAGGGATGAATAATCCCTCACTATAAATATCTCTCACTTATTTAAA”, the “cleaved RNA product abundance” value runs as follows: under setting [1], 0.215; under setting [2], 0.277; under setting [3], 0.208.

As to “ACAGACGAAGGAGCCGCAAAGAAGTTATTAAGGGATGAATAATCCCTCACTATATATATCTCTCACTTATTTAAA”, the “cleaved RNA product abundance” value under setting [2] is 0.319. Still for that read-out and setting: for “ACAGACGAAGGAGCCGCAAAGAAGTTATTAAGGGATGAATAATCCCTCAGAATAAATATCTCTCACTTATTTAAA” the value was 0.197. For “ACAGACGAAGGAGCCGCAAAGAAGTTATTAAGGGATGAATAATCCCTCAGGATAAATATCTCTCACTTATTTAAA”, the “cleaved RNA product abundance” value under setting [1] worked out at 0.131. For “ACAGACGAAGGAGCCGCAAAGAAGTTATTAAGGGATGAATAATCCCTCAGTATAAATATCTCTCACTTATTTAAA”, the “cleaved RNA product abundance” value reads like this: under setting [1], 0.215; under setting [2], 0.305; under setting [3], 0.259. Consider “ACAGACGAAGGAGCCGCAAAGAAGTTATTAAGGGATGAATAATCCCTCAGTATATATATCTCTCACTTATTTAAA”, for which the “cleaved RNA product abundance” value under setting [2] worked out at 0.242. Still for that read-out and setting: for “ACAGACGAAGGAGCCGCAAAGAAGTTATTAAGGGATGAATAATCCCTCATAATAAATATCTCTCACTTATTTAAA” the value was 0.554. As for “ACAGACGAAGGAGCCGCAAAGAAGTTATTAAGGGATGAATAATCCCTCATATAAATATCTCTCACTTATTTAAAG”, the “cleaved RNA product abundance” value under setting [1] is 0.394 and the “cleaved RNA product abundance” value under setting [2] came out at 0.256.

Turning to “ACAGACGAAGGAGCCGCAAAGAAGTTATTAAGGGATGAATAATCCCTCATCATAAATATCTCTCACTTATTTAAA”, the “cleaved RNA product abundance” value was 0.192 under setting [1] and 0.115 under setting [2]. For “ACAGACGAAGGAGCCGCAAAGAAGTTATTAAGGGATGAATAATCCCTCATTAAAAATATCTCTCACTTATTTAAA”, the “cleaved RNA product abundance” value under setting [1] is 0.116. As for “ACAGACGAAGGAGCCGCAAAGAAGTTATTAAGGGATGAATAATCCCTCATTATAAATAACTCTCACTTATTTAAA”, under setting [2], the “cleaved RNA product abundance” value is 0.248. Consider “ACAGACGAAGGAGCCGCAAAGAAGTTATTAAGGGATGAATAATCCCTCATTATAAATATCTCTCACTTATTTAAA”, for which the “cleaved RNA product abundance” value runs as follows: under setting [1], 0.263; under setting [2], 0.383; under setting [3], 0.395.

As to “ACAGACGAAGGAGCCGCAAAGAAGTTATTAAGGGATGAATAATCCCTCATTATAAATCTCTCTCACTTATTTAAA”, the “cleaved RNA product abundance” value under setting [1] came out at 0.236. Consider “ACAGACGAAGGAGCCGCAAAGAAGTTATTAAGGGATGAATAATCCCTCATTTTAAATATCTCTCACTTATTTAAA”, for which, under setting [2], the “cleaved RNA product abundance” value was determined as 0.191. “ACAGACGAAGGAGCCGCAAAGAAGTTATTAAGGGATGAATAATCCCTCCAAATAAATATCTCTCACTTATTTAAA”: the “cleaved RNA product abundance” value was 0.239 under setting [1] and 0.313 under setting [2]. “ACAGACGAAGGAGCCGCAAAGAAGTTATTAAGGGATGAATAATCCCTCCACATAAATATCTCTCACTTATTTAAA”: the “cleaved RNA product abundance” value under setting [1] was 0.108.

Regarding “ACAGACGAAGGAGCCGCAAAGAAGTTATTAAGGGATGAATAATCCCTCCATATAAATATCTCTCACTTATTTAAA”, the “cleaved RNA product abundance” value is 0.243 under setting [1], 0.341 under setting [2] and 0.34 under setting [3]. Consider “ACAGACGAAGGAGCCGCAAAGAAGTTATTAAGGGATGAATAATCCCTCCATATAAATTTCTCTCACTTATTTAAA”, for which the “cleaved RNA product abundance” value under setting [2] is 0.23. The same measure, in the same setting: for “ACAGACGAAGGAGCCGCAAAGAAGTTATTAAGGGATGAATAATCCCTCCCTATAAATATCTCTCACTTATTTAAA” the value was 0.212.

Turning to “ACAGACGAAGGAGCCGCAAAGAAGTTATTAAGGGATGAATAATCCCTCGATATAAATATCTCTCACTTATTTAAA”, the “cleaved RNA product abundance” value under setting [1] worked out at 0.348, the “cleaved RNA product abundance” value under setting [2] was 0.419 and the “cleaved RNA product abundance” value under setting [3] is 0.589.

For the sequence “ACAGACGAAGGAGCCGCAAAGAAGTTATTAAGGGATGAATAATCCCTCGTTATAAATATCTCTCACTTATTTAAA”, the “cleaved RNA product abundance” value runs as follows: under setting [1], 0.097; under setting [2], 0.157. Turning to “ACAGACGAAGGAGCCGCAAAGAAGTTATTAAGGGATGAATAATCCCTCTAAATAAATATCTCTCACTTATTTAAA”, the “cleaved RNA product abundance” value under setting [1] was 0.36 and the “cleaved RNA product abundance” value under setting [2] was found to be 0.429. As for “ACAGACGAAGGAGCCGCAAAGAAGTTATTAAGGGATGAATAATCCCTCTACATAAATATCTCTCACTTATTTAAA”, the “cleaved RNA product abundance” value under setting [2] amounted to 0.441. Turning to “ACAGACGAAGGAGCCGCAAAGAAGTTATTAAGGGATGAATAATCCCTCTAGATAAATATCTCTCACTTATTTAAA”, the “cleaved RNA product abundance” value under setting [2] was 0.266. Take “ACAGACGAAGGAGCCGCAAAGAAGTTATTAAGGGATGAATAATCCCTCTATATAAACATCTCTCACTTATTTAAA”: the “cleaved RNA product abundance” value under setting [1] turned out to be 0.362. As to “ACAGACGAAGGAGCCGCAAAGAAGTTATTAAGGGATGAATAATCCCTCTATATAAATACCTCTCACTTATTTAAA”, under setting [2], the “cleaved RNA product abundance” value was found to be 0.407.

Take “ACAGACGAAGGAGCCGCAAAGAAGTTATTAAGGGATGAATAATCCCTCTATATAAATATCTCTCACTTATTTAAA”: the “cleaved RNA product abundance” value runs as follows: under setting [1], 0.42; under setting [2], 0.489; under setting [3], 0.642. Regarding “ACAGACGAAGGAGCCGCAAAGAAGTTATTAAGGGATGAATAATCCCTCTATATAAATCTCTCTCACTTATTTAAA”, the “cleaved RNA product abundance” value under setting [2] is 0.529.

As to “ACAGACGAAGGAGCCGCAAAGAAGTTATTAAGGGATGAATAATCCCTCTATATAATTATCTCTCACTTATTTAAA”, the “cleaved RNA product abundance” value is 0.29 under setting [1] and 0.309 under setting [2]. For “ACAGACGAAGGAGCCGCAAAGAAGTTATTAAGGGATGAATAATCCCTCTATATACATATCTCTCACTTATTTAAA” the same measures were 0.248 and 0.226. As to “ACAGACGAAGGAGCCGCAAAGAAGTTATTAAGGGATGAATAATCCCTCTATATATATATCTCTCACTTATTTAAA”, under setting [2], the “cleaved RNA product abundance” value worked out at 0.418. On to “ACAGACGAAGGAGCCGCAAAGAAGTTATTAAGGGATGAATAATCCCTCTATCTAAATATCTCTCACTTATTTAAA”, for which the “cleaved RNA product abundance” value under setting [2] was determined as 0.101. Consider “ACAGACGAAGGAGCCGCAAAGAAGTTATTAAGGGATGAATAATCCCTCTATGTAAATATCTCTCACTTATTTAAA”, for which the “cleaved RNA product abundance” value came out at 0.16 under setting [1] and 0.0964 under setting [2].

As to “ACAGACGAAGGAGCCGCAAAGAAGTTATTAAGGGATGAATAATCCCTCTCTATAAATATCTCTCACTTATTTAAA”, under setting [2], the “cleaved RNA product abundance” value was determined as 0.372. Regarding “ACAGACGAAGGAGCCGCAAAGAAGTTATTAAGGGATGAATAATCCCTCTGTATAAATATCTCTCACTTATTTAAA”, the “cleaved RNA product abundance” value under setting [1] stood at 0.163 and the “cleaved RNA product abundance” value under setting [2] is 0.224. Regarding “ACAGACGAAGGAGCCGCAAAGAAGTTATTAAGGGATGAATAATCCCTGAAAATAAATATCTCTCACTTATTTAAA”, the “cleaved RNA product abundance” value under setting [2] is 0.615. On the same count and under the same terms, for “ACAGACGAAGGAGCCGCAAAGAAGTTATTAAGGGATGAATAATCCCTGAACATAAATATCTCTCACTTATTTAAA” the value was 0.242; for “ACAGACGAAGGAGCCGCAAAGAAGTTATTAAGGGATGAATAATCCCTGAAGATAAATATCTCTCACTTATTTAAA”, 0.387. The same measure, in the same setting: for “ACAGACGAAGGAGCCGCAAAGAAGTTATTAAGGGATGAATAATCCCTGAATATAAACATCTCTCACTTATTTAAA” the value was 0.413; for “ACAGACGAAGGAGCCGCAAAGAAGTTATTAAGGGATGAATAATCCCTGAATATAAATAGCTCTCACTTATTTAAA”, 0.256.

With “ACAGACGAAGGAGCCGCAAAGAAGTTATTAAGGGATGAATAATCCCTGAATATAAATATCTCTCACTTATTTAAA”, the “cleaved RNA product abundance” value was found to be 0.566 under setting [1], 0.684 under setting [2] and 0.675 under setting [3].

On to “ACAGACGAAGGAGCCGCAAAGAAGTTATTAAGGGATGAATAATCCCTGAATATATATATCTCTCACTTATTTAAA”, for which the “cleaved RNA product abundance” value by setting is: under setting [1], 0.477; under setting [2], 0.598.

Consider “ACAGACGAAGGAGCCGCAAAGAAGTTATTAAGGGATGAATAATCCCTTAAAATAAATATCTCTCACTTATTTAAA”, for which the “cleaved RNA product abundance” value under setting [2] amounted to 0.862.
